Data published in patent US20180087080A1.

Experiments:
FcγRIIIa receptor [1] = target: FcγRIIIa receptor (UniProt P08637); test: SPR (Biacore), FcγRIIIa immobilised, run 1
FcγRIIIa receptor [2] = target: FcγRIIIa receptor (UniProt P08637); test: SPR (Biacore), FcγRIIIa immobilised, run 2
FcγRIIIa receptor [3] = target: FcγRIIIa receptor (UniProt P08637); test: SPR (Biacore), FcγRIIIa immobilised; sample with 5.1 % afucosylation
FcγRIIIa receptor [4] = target: FcγRIIIa receptor (UniProt P08637); test: SPR (Biacore), FcγRIIIa immobilised; sample with 9.6 % afucosylation

Sequence of UniProt P08637 (P08637 17-208 limits assumed): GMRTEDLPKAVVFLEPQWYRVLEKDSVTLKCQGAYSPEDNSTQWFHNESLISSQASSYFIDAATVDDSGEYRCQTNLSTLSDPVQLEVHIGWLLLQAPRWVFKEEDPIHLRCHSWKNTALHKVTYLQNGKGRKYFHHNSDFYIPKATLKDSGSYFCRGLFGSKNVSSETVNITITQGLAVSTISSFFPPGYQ

Kd (FcγRIIIa receptor [1]) | Kd (FcγRIIIa receptor [2]) | Kd (FcγRIIIa receptor [3]) | Kd (FcγRIIIa receptor [4]) | Substance
372 nM | 508 nM | – | – | Itolizumab produced from mouse derived NS0 cell line (T1h) (antibody)
– | – | 328 nM | 306 nM | Itolizumab produced from Chinese Hamster Ovary (CHO) cell line (Bmab-600) (antibody)
